# The nanobody polyreactivity screen of Harvey et al. (2022)
# Experiment: yeast display, Sf9 membrane polyspecificity reagent, FACS + sequencing; frameworks hold sequencing errors
# Outline: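 Nanobodies from a synthetic yeast display library (Saccharomyces cerevisiae BJ5465), induced 36–48 hours with galactose, were stained 1 hour at 4 °C with 10% biotinylated, detergent-solubilized Sf9 membrane reagent, enriched on streptavidin microbeads, then FACS-sorted. Anti-HA (expression) and streptavidin (reagent binding) fluorescence set low and high (top ~1%) gates. Polyreactivity labels come from the gate of origin. Genes were colony-PCR amplified, MiSeq 2 × 250 sequenced and filtered by CDR length.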
row,Sequence,polyreactivity (PSR sort gate)
1,QVQLVESGGGLVQAGGSLRLSCAASGIISSVYAMGWYRQAPGKERELVAAISGSGGSTYYADSVKGRFTISRDNAKNTVYLQMNSQKPEDTAVYYCSKGYQYQGNSYGYWGQGTQVTVSS,low polyreactivity
2,QVQLVESGGGLVQAGGSLRLSCAASGIISYPTVMGWYRQAPGKERELVPAITSGGRTKYADSVKGRFTISRDNAKNTVYLQMNSLKPEDTAVYYCAARTVYWQSWSQFWGYNYWGQGTQVTVSS,low polyreactivity
3,QVQLVESGGGLVQAGGSLRLSCAASGIIYGRYAMGWYRQAPGKERELVAAINASGGSTYYADSVKGRFTISRDNAKNTVYLQMNSLKPEDSAVYYCATRSTRSRTSGYYYWGQGTQVTVSS,high polyreactivity
4,QVQLVESGGGLVQAGGSLRLSCAASGIIYITNAMGWYRQAPGKERELVAAISSTVSTNYADSVKGRFTISRDNAKNTVYLQMNSLKPEDTAVYYCAAEWGLTQGESIYDYWGQGTQVTVSS,low polyreactivity
5,QVQLVESGGGLVQAGGSLRLSCAASGIIYSINAMGWYRQAPGKERELVAAISRSGGSTNYADSVKGRFTISRDNAKNTVYLQMNSLKPEDSAVYYCATVHRYSVWSHNYWGQGTQVTVSS,high polyreactivity
6,QVQLVESGGGLVQAGGSLRLSCAASGIIYTYYAMGWYRQAPGKERELVARISSSGGRTYYADSVKGRFTISRDNAKNTVYLQMNSLKPEDTAVYYCAAAIVSYGRNDYWGQGTQVTVSS,high polyreactivity
7,QVQLVESGGGLVQAGGSLRLSCAASGINFAAYVMGWYRQAPGKERELFAAISKSGGRTYYADSVKGRFTISRDNAKNTVYLQMNSLKPEDTAVYYCAASYTYFSFGIGTDVRYGYWGQGTQVTVSS,high polyreactivity
8,QVQLVESGGGLVQAGGSLRLSCAASGINFGYNVMGWYRQAPGKERELVAAISGSGSSTYYADSVKGRFTISRDNAKNTVYLQMNSLKPEDTAVYYCARQRYEYRTTYYYWGQGTQVTVSS,high polyreactivity
9,QVQLVESGGGLVQAGGSLRLSCAASGINFNRYAMGWYRQAPGNERELVAAITSSGGSTHYADSVKGRFTISRDNAKNTVYLQMNSLKPEDTAVYYCAKQFPNNYRYYLHYYYWGQGTQVTVSS,low polyreactivity
10,QVQLVESGGGLVQAGGSLRLSCAASGINFNYYAMGWYRQAPGKERELVAAISSTGSTYYSDSVKGRFTISRDNAKNTVYLQMNSLKPEDTAVYYCAAEWWDTGFANYGYDYWGQGTQVTVSS,high polyreactivity
11,QVQLVESGGGLVQAGGSLRLSCAASGINFSEYAMGWSRQAPGKERELVAVITSGGSTYYADSVKGRFTISRDNAKNTVYLQMNSLKPEDTAVYYCAARTAYASRYVNVPYYYWGQGTQVTVSS,high polyreactivity
12,QVQLVESGGGLVQAGGSLRLSCAASGINFVYYAMGWYRQAPGTEREMVAAISKSSGRTYYADSVKGRFTISRDYAKNTVYLQMNSLKPEDTAVYYCNARYRLSPPPLEYWGQGTQVTVSS,high polyreactivity
13,QVQLVESGGGLVQAGGSLRLSCAASGINLAGYVMGGYRQAPGKERDLVADISSSGDSTYYADSVKGRFTISRDNAKNTVYLQMNSLLPEDTAVYYCAAEEIIPLIYKGYPFDYWGQGSQVTVSS,low polyreactivity
14,QVQLVESGGGLVQAGGSLRLSCAASGIPLVSYARGWYRPAPGKVRELVAAISTSGGRTRYADSVKGRFTISRDHAKNTVYIQMNSLKPEDTAVYYCAAELVEPRYNHLPGDGNYWGQGTQVTGSS,high polyreactivity
15,QVQLVESGGGLVQAGGSLRLSCAASGIPRNTMGWYRQAPGKETELVASISTSGGSTYYADSVKGRFTISRDNAKNTVYLQMNSLKPEDTAVYYCAKKGYASRYFIYDYWGQGTQVTVSS,low polyreactivity
16,QVQLVESGGGLVQAGGSLRLSCAASGISFGNYAMGWYRQAPGKERELVATISRSGGSTYYADSVKGRFTISRDNAKNTVYLQMNSLKPEDTAVYYCAAQDARRIVYYRYYYWGQGTQVTVSS,high polyreactivity
17,QVQLVESGGGLVQAGGSLRLSCAASGISFYVNAMGSYRQAPGKERELVVAITQSVDITSYADSVKGRFTISRDNEKNTVYLQMNSLKPEVTAVYYCATRVIQDDNARDYWGQGTQVTVSS,low polyreactivity
18,QVQLVESGGGLVQAGGSLRLSCAASGISYRWYAMGWYRQAPGKERELVAAISSGGSTTYADSVKGRFTISRDNAKNTVYLQMNSLKPEDTAVYYCAARYQWYSADYDYWGQGTQVTVSS,high polyreactivity
19,QVQLVESGGGLVQAGGSLRLSCAASGITFADNARGWYRQAPGKERELVASISNSSGSTYYADSVKGRFTISRDNAKNTVYLQMNSLKPEDTAVYYCATDPYVRRSPSWYDYWGQGTQVTVSS,low polyreactivity
20,QVQLVESGGGLVQAGGSLRLSCAASGITFAKYAMGWYRQAPGKERELVAAISTSGGSTYYADSVKGRFTISRDNAKNTVYLQMNSLKPEDTAVYYCNVDTYIWYYLRYYNYWGQGTQVTVSS,high polyreactivity
21,QVQLVESGGGLVQAGGSLRLSCAASGITFAQYAMGWYRQAPGTERELVAGITRSGGSTHYADSVKGRFTISRDNAKNTVYLQMNSLKPEDTAVYYCNARYPYRGKRKPSDYWGQGTQVTVSS,high polyreactivity
22,QVQLVESGGGLVQAGGSLRLSCAASGITFASYAMGWYRQAPGKERELVAGISGSGGRTYYADSVKGRFTISRDNAKNTVYLQMNSLKPEDTAVYYCAARQWDIRASPPRYYRYDYWGQGTQVTVSS,high polyreactivity

row,Sequence,polyreactivity (PSR sort gate)
1,QVQLVESGGGLVQAGGSLRLSCAASGITFAWNAMGWYRPAPGKEREFVAAINWSGGSTYYADSVKGRFTISRDNAKNTVYLQMNSLKPEDTAVYYCAAYKRSYYPRTLYDYWGQGTQVTVSS,high polyreactivity
2,QVQLVESGGGLVQAGGSLRLSCAASGITFAYYAKGWYRQAPGKEREFVAAINGGGSTNYADSVKGRFSISRDNAKNTVYLQMNSLKAEDTAVYFCNARRAYRAWYYPYDYWGQGTQVTVSS,high polyreactivity
3,QVQLVESGGGLVQAGGSLRLSCAASGITFAYYAMGWYRQAPGKERELVAAITGDGGSTYYADSVKGRFTISRDNAKNTVYLQMNSLKPEDTAVYYCNAELSDYRYDWWDYDYWGQGTQVTVSS,high polyreactivity
4,QVQLVESGGGLVQAGGSLRLSCAASGITFAYYVMGWYRQAPGKERELVAAINWSGGSTYYADSVKGRFTISRDNAKNTVYLQMNSLKPEDTAVYYCAADWSTWYGEKFYWGQGTQVTVSS,high polyreactivity
5,QVQLVESGGGLVQAGGSLRLSCAASGITFAYYVMGWYRQAPGKERELVAAISRSGSTYYADSVKGRFTISRDNAKNTVYLQMNSLKPEDTAVYYCAVLYIRWYTYEYWGQGTQVTVSS,high polyreactivity
6,QVQLVESGGGLVQAGGSLRLSCAASGITFDANAMGWYRQAPGKERELVARISSGGSTNYADSVKGRFTISRDNAKNTVYLQMNSLKPEDTAVYYCNTDLTGLDAEYDYWGQGTQVTVSS,low polyreactivity
7,QVQLVESGGGLVQAGGSLRLSCAASGITFDGYAMGWYRQAPGKERELVAAITYSGGRTYYADSVKGRFTISRDNAKNTVYLQMNSLKPEDTAVYYCAVVSRRLYDYDYWGQGTQVTVSS,high polyreactivity
8,QVQLVESGGGLVQAGGSLRLSCAASGITFDLYDMGWYRQAPGKERDFVAAITDADSTYYADSVKGRFTISRDNAKNTVYLQMNSLKPEDTAVYYCAADFFYSVYSGHYDYWGQGTQVTVSS,low polyreactivity
9,QVQLVESGGGLVQAGGSLRLSCAASGITFDNYAMGWYIQAPGKERELVAAITSGDGTYYADSVKWRFTISRDNAKITVYLQMNSLKPEDTAVYACAVQGSRTENYDWYYYGGQGTQVTVSS,low polyreactivity
10,QVQLVESGGGLVQAGGSLRLSCAASGITFDRYAMGWYRQAPGKERELVAAITTRGTRTYADSVKGRFTISRDNAKNTVYLQMNSLKPEDTAVYYCAATSYRLTYAWPYYYWGQGTQVTVSS,high polyreactivity
11,QVQLVESGGGLVQAGGSLRLSCAASGITFDTYAMGWYRQAPGKERELVAAISKSGGSTYYADSVKGRFTISRDNAKNTVYLQMNSLKPEDTAVYYCAKDAGSRTVREFGYWGQGTQVTVSS,high polyreactivity
12,QVQLVESGGGLVQAGGSLRLSCAASGITFDVYAMGWYRQAPGKERELVAAISSVGGTYYADSVKGRFTISRDNAKNTVYFQMNSLKPEDTAVYYCNTDGYVGSIRSGLYIYEYWGQGTQVTVSS,low polyreactivity
13,QVQLVESGGGLVQAGGSLRLSCAASGITFDVYAMGWYRQAPGKERELVAAISSVGGTYYADSVKGRFTISRDNAKNTVYLQMNSLKPEDTAVYYCNTDGYVGSIRSGLYIYDYWGQGTQVTVSS,low polyreactivity
14,QVQLVESGGGLVQAGGSLRLSCAASGITFDWNAMGWYRQAPGKERELVAAISSGASTYYADSVKGRFTISRDNAKNTVYLQMNSLKPEDTAVYYCAKRHAINIHAVGPYYTSMDYWGQGTQVTVSS,low polyreactivity
15,QVQLVESGGGLVQAGGSLRLSCAASGITFDYYGMGWYRQAPGKERALCASITSGGSTNYADSVKGRFTISRDNAKNSVYLQMNSLKPEDTAVYYCAADGYGGYYRGTYYTVYFWGQGTQVTVSS,low polyreactivity
16,QVQLVESGGGLVQAGGSLRLSCAASGITFDYYPMGWYRQEPGKERELVAVITWSVGSTKYADSVKGRFTISRDNAKNTVYLLMNRLKPEETAVYNCNPRPPRWVRSMDYWGHGTQVTVSS,high polyreactivity
17,QVQLVESGGGLVQAGGSLRLSCAASGITFEGYAMGWYRQAPRKERELVAAITGSGSTTYYADSVKGRFTISRDNAKNTVYLQMNSLKPEDTAVYYCAADVSYKLYWGQVTQVTVSS,low polyreactivity
18,QVQLVESGGGLVQAGGSLRLSCAASGITFELYAMGLYIQAPGKERELVAAISSNGGITFYADSVKGRFTISRDNAKNTVYLQMNSLKTEDTAVYYCAARGYIRGPSKLDYWGQGTQVTVSS,high polyreactivity
19,QVQLVESGGGLVQAGGSLRLSCAASGITFEVYAKGWYRQAPGKERELVAVITSVGSTNYADSVKGRFTISRDNAKNTVYLQMNSLKPEDTAVYYCAAEKWTVRRFNPYTYYRYDYWGQGTQVTVSS,low polyreactivity
20,QVQLVESGGGLVQAGGSLRLSCAASGITFEYYDMGWYRQAPGKERELVAAISWSTDITYADSVKGRFTISRDNAKNTVYLQMNSLKPEDTAVYYCAASTYEYTSYDYWGHGTQVTVSS,low polyreactivity
21,QVQLVESGGGLVQAGGSLRLSCAASGITFFGYAMGWYRQAPGKERELVAAISTRGGSTYYADSVKGRFTISRDNAKNTVYLQMNSLKPEDTAFYYCNKEYYHKWAPTYDYWGQGTQVTVSS,low polyreactivity
